Measurements reported in publication PMC12416549 (2024).

T1: TNFR1 (Homo sapiens, UniProt P19438)
T1 chain: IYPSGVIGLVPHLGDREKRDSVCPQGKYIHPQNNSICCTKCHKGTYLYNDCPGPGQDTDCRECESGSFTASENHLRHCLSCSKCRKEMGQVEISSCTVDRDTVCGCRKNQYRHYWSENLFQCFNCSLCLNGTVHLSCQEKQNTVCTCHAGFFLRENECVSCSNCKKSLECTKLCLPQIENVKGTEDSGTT


Biological target: T1, TNFR1
Experiment: yeast display SC50

Binder	apparent Kd (screen) [nM]
K31D (designed binder) SMEEEVEKAAKEYEKKKKEAIEKHLEKLKADDKEAAERFLKELEEAAKEYAKDEAKTMSEEEAKRRAKKYKEKVLLSELSEEEQKEIKEAEEKLVRTILKYVEEAAK	0.956
K11L (designed binder) SMEEEVEKAALEYEKKKKEAIEKHLEKLKAKDKEAAERFLKELEEAAKEYAKDEAKTMSEEEAKRRAKKYKEKVLLSELSEEEQKEIKEAEEKLVRTILKYVEEAAK	0.49
E19G (designed binder) SMEEEVEKAAKEYEKKKKGAIEKHLEKLKAKDKEAAERFLKELEEAAKEYAKDEAKTMSEEEAKRRAKKYKEKVLLSELSEEEQKEIKEAEEKLVRTILKYVEEAAK	0.49
F39Y (designed binder) SMEEEVEKAAKEYEKKKKEAIEKHLEKLKAKDKEAAERYLKELEEAAKEYAKDEAKTMSEEEAKRRAKKYKEKVLLSELSEEEQKEIKEAEEKLVRTILKYVEEAAK	1.4
L43E (designed binder) SMEEEVEKAAKEYEKKKKEAIEKHLEKLKAKDKEAAERFLKEEEEAAKEYAKDEAKTMSEEEAKRRAKKYKEKVLLSELSEEEQKEIKEAEEKLVRTILKYVEEAAK	16.7
V74C (designed binder) SMEEEVEKAAKEYEKKKKEAIEKHLEKLKAKDKEAAERFLKELEEAAKEYAKDEAKTMSEEEAKRRAKKYKEKCLLSELSEEEQKEIKEAEEKLVRTILKYVEEAAK	4.39
Y13K (designed binder) SMEEEVEKAAKEKEKKKKEAIEKHLEKLKAKDKEAAERFLKELEEAAKEYAKDEAKTMSEEEAKRRAKKYKEKVLLSELSEEEQKEIKEAEEKLVRTILKYVEEAAK	7.07
E104N (designed binder) SMEEEVEKAAKEYEKKKKEAIEKHLEKLKAKDKEAAERFLKELEEAAKEYAKDEAKTMSEEEAKRRAKKYKEKVLLSELSEEEQKEIKEAEEKLVRTILKYVENAAK	0.718
E12F (designed binder) SMEEEVEKAAKFYEKKKKEAIEKHLEKLKAKDKEAAERFLKELEEAAKEYAKDEAKTMSEEEAKRRAKKYKEKVLLSELSEEEQKEIKEAEEKLVRTILKYVEEAAK	0.539
S77M (designed binder) SMEEEVEKAAKEYEKKKKEAIEKHLEKLKAKDKEAAERFLKELEEAAKEYAKDEAKTMSEEEAKRRAKKYKEKVLLMELSEEEQKEIKEAEEKLVRTILKYVEEAAK	1.4
R96W (designed binder) SMEEEVEKAAKEYEKKKKEAIEKHLEKLKAKDKEAAERFLKELEEAAKEYAKDEAKTMSEEEAKRRAKKYKEKVLLSELSEEEQKEIKEAEEKLVWTILKYVEEAAK	2.05
A35I (designed binder) SMEEEVEKAAKEYEKKKKEAIEKHLEKLKAKDKEIAERFLKELEEAAKEYAKDEAKTMSEEEAKRRAKKYKEKVLLSELSEEEQKEIKEAEEKLVRTILKYVEEAAK	0.539
Y13R (designed binder) SMEEEVEKAAKEREKKKKEAIEKHLEKLKAKDKEAAERFLKELEEAAKEYAKDEAKTMSEEEAKRRAKKYKEKVLLSELSEEEQKEIKEAEEKLVRTILKYVEEAAK	12.5
L75S (designed binder) SMEEEVEKAAKEYEKKKKEAIEKHLEKLKAKDKEAAERFLKELEEAAKEYAKDEAKTMSEEEAKRRAKKYKEKVSLSELSEEEQKEIKEAEEKLVRTILKYVEEAAK	0.718
K29Q (designed binder) SMEEEVEKAAKEYEKKKKEAIEKHLEKLQAKDKEAAERFLKELEEAAKEYAKDEAKTMSEEEAKRRAKKYKEKVLLSELSEEEQKEIKEAEEKLVRTILKYVEEAAK	0.593
F39P (designed binder) SMEEEVEKAAKEYEKKKKEAIEKHLEKLKAKDKEAAERPLKELEEAAKEYAKDEAKTMSEEEAKRRAKKYKEKVLLSELSEEEQKEIKEAEEKLVRTILKYVEEAAK	4.83
E72A (designed binder) SMEEEVEKAAKEYEKKKKEAIEKHLEKLKAKDKEAAERFLKELEEAAKEYAKDEAKTMSEEEAKRRAKKYKAKVLLSELSEEEQKEIKEAEEKLVRTILKYVEEAAK	2.73

Binder	apparent Kd (screen) [nM]
E12L (designed binder) SMEEEVEKAAKLYEKKKKEAIEKHLEKLKAKDKEAAERFLKELEEAAKEYAKDEAKTMSEEEAKRRAKKYKEKVLLSELSEEEQKEIKEAEEKLVRTILKYVEEAAK	0.49
E26T (designed binder) SMEEEVEKAAKEYEKKKKEAIEKHLTKLKAKDKEAAERFLKELEEAAKEYAKDEAKTMSEEEAKRRAKKYKEKVLLSELSEEEQKEIKEAEEKLVRTILKYVEEAAK	0.593
A47F (designed binder) SMEEEVEKAAKEYEKKKKEAIEKHLEKLKAKDKEAAERFLKELEEAFKEYAKDEAKTMSEEEAKRRAKKYKEKVLLSELSEEEQKEIKEAEEKLVRTILKYVEEAAK	0.593
E26W (designed binder) SMEEEVEKAAKEYEKKKKEAIEKHLWKLKAKDKEAAERFLKELEEAAKEYAKDEAKTMSEEEAKRRAKKYKEKVLLSELSEEEQKEIKEAEEKLVRTILKYVEEAAK	1.05
L76C (designed binder) SMEEEVEKAAKEYEKKKKEAIEKHLEKLKAKDKEAAERFLKELEEAAKEYAKDEAKTMSEEEAKRRAKKYKEKVLCSELSEEEQKEIKEAEEKLVRTILKYVEEAAK	3
L79Q (designed binder) SMEEEVEKAAKEYEKKKKEAIEKHLEKLKAKDKEAAERFLKELEEAAKEYAKDEAKTMSEEEAKRRAKKYKEKVLLSEQSEEEQKEIKEAEEKLVRTILKYVEEAAK	2.48
E44M (designed binder) SMEEEVEKAAKEYEKKKKEAIEKHLEKLKAKDKEAAERFLKELMEAAKEYAKDEAKTMSEEEAKRRAKKYKEKVLLSELSEEEQKEIKEAEEKLVRTILKYVEEAAK	0.956
A55S (designed binder) SMEEEVEKAAKEYEKKKKEAIEKHLEKLKAKDKEAAERFLKELEEAAKEYAKDESKTMSEEEAKRRAKKYKEKVLLSELSEEEQKEIKEAEEKLVRTILKYVEEAAK	1.69
E86H (designed binder) SMEEEVEKAAKEYEKKKKEAIEKHLEKLKAKDKEAAERFLKELEEAAKEYAKDEAKTMSEEEAKRRAKKYKEKVLLSELSEEEQKHIKEAEEKLVRTILKYVEEAAK	1.69
L75G (designed binder) SMEEEVEKAAKEYEKKKKEAIEKHLEKLKAKDKEAAERFLKELEEAAKEYAKDEAKTMSEEEAKRRAKKYKEKVGLSELSEEEQKEIKEAEEKLVRTILKYVEEAAK	0.368
A46H (designed binder) SMEEEVEKAAKEYEKKKKEAIEKHLEKLKAKDKEAAERFLKELEEHAKEYAKDEAKTMSEEEAKRRAKKYKEKVLLSELSEEEQKEIKEAEEKLVRTILKYVEEAAK	1.16
K8G (designed binder) SMEEEVEGAAKEYEKKKKEAIEKHLEKLKAKDKEAAERFLKELEEAAKEYAKDEAKTMSEEEAKRRAKKYKEKVLLSELSEEEQKEIKEAEEKLVRTILKYVEEAAK	0.593
E26M (designed binder) SMEEEVEKAAKEYEKKKKEAIEKHLMKLKAKDKEAAERFLKELEEAAKEYAKDEAKTMSEEEAKRRAKKYKEKVLLSELSEEEQKEIKEAEEKLVRTILKYVEEAAK	0.539
K93G (designed binder) SMEEEVEKAAKEYEKKKKEAIEKHLEKLKAKDKEAAERFLKELEEAAKEYAKDEAKTMSEEEAKRRAKKYKEKVLLSELSEEEQKEIKEAEEGLVRTILKYVEEAAK	0.79
R66N (designed binder) SMEEEVEKAAKEYEKKKKEAIEKHLEKLKAKDKEAAERFLKELEEAAKEYAKDEAKTMSEEEAKRNAKKYKEKVLLSELSEEEQKEIKEAEEKLVRTILKYVEEAAK	16.7
A67P (designed binder) SMEEEVEKAAKEYEKKKKEAIEKHLEKLKAKDKEAAERFLKELEEAAKEYAKDEAKTMSEEEAKRRPKKYKEKVLLSELSEEEQKEIKEAEEKLVRTILKYVEEAAK	0.593
